According to the array DNA melting data of Ke et al.:

Assay: melting temperature; melt of duplexes
Settings: sodium 0.0675 M; strand 1 µM

Row | Substance | Tm
1 | CGACGTGCAGTATGTGCTG+CAGCACATGTAGCACGTCG ((((((((...((((((((+))))))))...)))))))) | 49.8 °C
2 | CGACGTGCAGTATGTGCTG+CAGCACATTCAGCACGTCG ((((((((.(.((((((((+)))))))).).)))))))) | 51.1 °C
3 | CGACGTGCAGTATGTGCTG+CAGCACATTGAGCACGTCG ((((((((...((((((((+))))))))...)))))))) | 49.1 °C
4 | CGACGTGCAGTATGTGCTG+CAGCACATTGTGCACGTCG (((((((((..((((((((+))))))))..))))))))) | 48.6 °C
5 | CGACGTGCAGTATGTGCTG+CAGCACATTTAGCACGTCG ((((((((...((((((((+))))))))...)))))))) | 48.6 °C
6 | CGACGTGCAGTATGTGCTG+CAGCACATTTCGCACGTCG ((((((((...((((((((+))))))))...)))))))) | 49.7 °C
7 | CGACGTGCATAATGTGCTG+CAGCACATAACGCACGTCG ((((((((.(.((((((((+)))))))).).)))))))) | 48.8 °C
8 | CGACGTGCATAATGTGCTG+CAGCACATAAGGCACGTCG ((((((((.(.((((((((+)))))))).).)))))))) | 51.3 °C
9 | CGACGTGCATAATGTGCTG+CAGCACATACAGCACGTCG ((((((((...((((((((+))))))))...)))))))) | 48.2 °C
10 | CGACGTGCATAATGTGCTG+CAGCACATACGGCACGTCG ((((((((...((((((((+))))))))...)))))))) | 47.3 °C
11 | CGACGTGCATAATGTGCTG+CAGCACATAGAGCACGTCG ((((((((...((((((((+))))))))...)))))))) | 48.7 °C
12 | CGACGTGCATAATGTGCTG+CAGCACATAGTGCACGTCG (((((((((..((((((((+))))))))..))))))))) | 48.7 °C
13 | CGACGTGCATAATGTGCTG+CAGCACATATCGCACGTCG ((((((((...((((((((+))))))))...)))))))) | 48.6 °C
14 | CGACGTGCATAATGTGCTG+CAGCACATCACGCACGTCG ((((((((.(.((((((((+)))))))).).)))))))) | 47.6 °C
15 | CGACGTGCATAATGTGCTG+CAGCACATCCGGCACGTCG ((((((((...((((((((+))))))))...)))))))) | 48.3 °C
16 | CGACGTGCATAATGTGCTG+CAGCACATCGCGCACGTCG ((((((((...((((((((+))))))))...)))))))) | 46.9 °C
17 | CGACGTGCATAATGTGCTG+CAGCACATCGGGCACGTCG ((((((((...((((((((+))))))))...)))))))) | 48.2 °C
18 | CGACGTGCATAATGTGCTG+CAGCACATCTGGCACGTCG ((((((((...((((((((+))))))))...)))))))) | 49.3 °C
19 | CGACGTGCATAATGTGCTG+CAGCACATCTTGCACGTCG (((((((((..((((((((+))))))))..))))))))) | 50.8 °C
20 | CGACGTGCATAATGTGCTG+CAGCACATGACGCACGTCG ((((((((.(.((((((((+)))))))).).)))))))) | 50.5 °C
21 | CGACGTGCATAATGTGCTG+CAGCACATGCTGCACGTCG (((((((((..((((((((+))))))))..))))))))) | 50 °C
22 | CGACGTGCATAATGTGCTG+CAGCACATGGGGCACGTCG ((((((((...((((((((+))))))))...)))))))) | 51.2 °C
23 | CGACGTGCATAATGTGCTG+CAGCACATGGTGCACGTCG (((((((((..((((((((+))))))))..))))))))) | 52.6 °C
24 | CGACGTGCATAATGTGCTG+CAGCACATGTCGCACGTCG ((((((((...((((((((+))))))))...)))))))) | 52.2 °C
25 | CGACGTGCATAATGTGCTG+CAGCACATTACGCACGTCG ((((((((.((((((((((+)))))))))).)))))))) | 54.4 °C
26 | CGACGTGCATAATGTGCTG+CAGCACATTAGGCACGTCG ((((((((.((((((((((+)))))))))).)))))))) | 57.7 °C
27 | CGACGTGCATAATGTGCTG+CAGCACATTATGCACGTCG (((((((((((((((((((+))))))))))))))))))) | 61.8 °C
28 | CGACGTGCATAATGTGCTG+CAGCACATTTAGCACGTCG ((((((((..(((((((((+)))))))))..)))))))) | 53.2 °C
